The results in this text go back to article PMC5893644.

Assay [1] addresses BrYV P3a^P18L, 3xFlag- and GFP-tagged copies (Brassica yellows virus (BrYV-A)). Nature of the assay: SDS-PAGE and western blot (dimer band under denaturing conditions); total protein of agroinfiltrated N. benthamiana leaves in 2x SDS-PAGE buffer, 100 °C 10 min, 12.5% SDS-PAGE; antisera to GFP or RFP.
Assay [2] addresses His.MBP-P3a^P18L fusion protein (Brassica yellows virus (BrYV-A)). In words: SDS-PAGE and western blot (dimer band under denaturing conditions); E. coli Rosetta (DE3) induced with 0.1 mM IPTG at 18 °C for 20 h; 12.5% SDS-PAGE; anti-MBP monoclonal antibody.
In assay [3] the target is P3a^P18L-RFP (Brassica yellows virus (BrYV-A)). Nature of the assay: SDS-PAGE and western blot (dimer band under denaturing conditions); total protein of agroinfiltrated N. benthamiana leaves in 2x SDS-PAGE buffer, 100 °C 10 min, 12.5% SDS-PAGE; antisera to GFP or RFP. (In general: A western blot detects proteins with antibodies after separation by electrophoresis.)

Usually stoichiometry N stands for a count of units in the complex or per binding partner. As to “BrYV P3a^P18L, 3xFlag- and GFP-tagged copies (from UniProt A0A897TIH8 1-45) (natural protein)”, the stoichiometry N in assay [1] was determined as 2.
The substance “His.MBP-P3a^P18L fusion protein (from UniProt A0A897TIH8 1-45) (natural protein)” had a stoichiometry N in assay [2] of 2.
As for “P3a^P18L-RFP (from UniProt A0A897TIH8 1-45) (natural protein)”, the stoichiometry N in assay [3] is 2.
